According to US20210403594A1 (IMMUNOGEN, published 2021):

What was measured:
human EpCAM (CD326) = target: T1, human EpCAM (CD326) (human, UniProt P16422 24-314); assay: flow cytometry on HSC2 cells; Geo Mean FL1 against concentration; Alexa Fluor Plus 488 goat anti-mouse IgG (Example 2)
T1 construct: whole, on cells; Antigen on the surface of the human cells used in flow cytometry and cytotoxicity assays; also called EpCAM on HSC2 cells; human-EpCAM expressing 300-19 cells
T1 sequence (looked up): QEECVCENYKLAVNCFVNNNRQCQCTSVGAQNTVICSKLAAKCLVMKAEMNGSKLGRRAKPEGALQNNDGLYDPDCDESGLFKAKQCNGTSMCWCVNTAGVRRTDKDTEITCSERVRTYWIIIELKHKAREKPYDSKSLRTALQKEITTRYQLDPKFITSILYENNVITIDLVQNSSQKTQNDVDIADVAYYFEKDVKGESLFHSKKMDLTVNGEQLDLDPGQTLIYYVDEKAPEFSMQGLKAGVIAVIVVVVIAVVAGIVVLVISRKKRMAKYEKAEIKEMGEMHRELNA

[1] = target: cynomolgus EpCAM (cynomolgus monkey); assay: flow cytometry on cyno kidney epithelial cells; Geo Mean FL1 against concentration; Alexa Fluor Plus 488 goat anti-mouse IgG (Example 2)
Chain of cynomolgus EpCAM (cynomolgus monkey) (Q1WER1 24-314): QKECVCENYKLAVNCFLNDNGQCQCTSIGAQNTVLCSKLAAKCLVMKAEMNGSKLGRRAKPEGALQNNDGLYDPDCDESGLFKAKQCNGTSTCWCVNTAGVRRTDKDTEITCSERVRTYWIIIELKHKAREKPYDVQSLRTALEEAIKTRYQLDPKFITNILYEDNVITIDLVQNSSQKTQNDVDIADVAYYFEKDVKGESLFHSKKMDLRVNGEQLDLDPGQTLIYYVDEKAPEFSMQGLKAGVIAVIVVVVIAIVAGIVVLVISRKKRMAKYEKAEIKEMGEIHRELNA

Kd (human EpCAM (CD326)): 0.38 nM
Kd [1]: 0.79 nM
B1: mEpCAM23 (antibody, mouse IgG2b, kappa)
heavy: EVKLEESGPALVKPGASVRISCKASGYTFTNYYIHWVKQRPGQGLDYIGWIYPGNVYIQYNEKFKGKATLTADKSSSTAFMQLSSLTSEDSAVYFCARDGPWFAYWGQGTLVTVSSAKTTPPSVYPLAPGCGDTTGSSVTLGCLVKGYFPESVTVTWNSGSLSSSVHTFPALLQSGLYTMSSSVTVPSSTWPSQTVTCSVAHPASSTTVDKKLEPSGPISTINPCPPCKECHKCPAPNLEGGPSVFIFPPNIKDVLMISLTPKVTCVVVDVSEDDPDVRISWFVNNVEVHTAQTQTHREDYNSTIRVVSALPIQHQDWMSGKEFKCKVNNKDLPSPIERTISKIKGLVRAPQVYILPPPAEQLSRKDVSLTCLVVGFNPGDISVEWTSNGHTEENYKDTAPVLDSDGSYFIYSKLDIKTSKWEKTDSFSCNVRHEGLKNYYLKKTISRSPGK
light: DIVLTQTPFSNPVTLGTSASISCRSSKSLLHSDGFTYLYWFLQKPGQSPHLLIYQTSNLASGVPDRFSSSGSGTDFTLRISRVEAEDVGVYYCAQNLELPNTFGGGTKLEIKRADAAPTVSIFPPSSEQLTSGGASVVCFLNNFYPKDINVKWKIDGSERQNGVLNSWTDQDSKDSTYSMSSTLTLTKDEYERHNSYTCEATHKTSTSPIVKSFNRNEC
notes: also called muEpCAM-23; muEpCAM23
